Columns and labels:
[1] = molecular target: TRF1 (unmodified, His-tagged full length) (human, UniProt P54274 1-439); test: EMSA; unmodified TRF1, 1 ug protein, 0.5 ng DNA; 20 mM Hepes pH 7.9, 100 mM NaCl, 50 mM KCl, 1 mM MgCl2, 0.1 mM EDTA, 1 mM DTT, 5% glycerol, 0.5 mg/ml BSA, 0.1% NP-40; 4 °C, 90 min; native 4.5% PAGE; conditions: protein: recombinant; tags: His (pTrc-HisB); chain copies: 2; label: 32P 5' end label (T4 PNK); blunt
[2] = molecular target: PARP1 (high specific activity) (human, UniProt P09874 1-1014); test: EMSA; PARP1 alone, control from PARylation reaction; did not affect DNA migration; 20 mM Hepes pH 7.9, 100 mM NaCl, 50 mM KCl, 1 mM MgCl2, 0.1 mM EDTA, 1 mM DTT, 5% glycerol, 0.5 mg/ml BSA, 0.1% NP-40; 4 °C, 90 min; native 4.5% PAGE; conditions: protein: commercial; label: 32P 5' end label (T4 PNK); blunt
Sequence of PARP1 (high specific activity) (P09874 whole entry): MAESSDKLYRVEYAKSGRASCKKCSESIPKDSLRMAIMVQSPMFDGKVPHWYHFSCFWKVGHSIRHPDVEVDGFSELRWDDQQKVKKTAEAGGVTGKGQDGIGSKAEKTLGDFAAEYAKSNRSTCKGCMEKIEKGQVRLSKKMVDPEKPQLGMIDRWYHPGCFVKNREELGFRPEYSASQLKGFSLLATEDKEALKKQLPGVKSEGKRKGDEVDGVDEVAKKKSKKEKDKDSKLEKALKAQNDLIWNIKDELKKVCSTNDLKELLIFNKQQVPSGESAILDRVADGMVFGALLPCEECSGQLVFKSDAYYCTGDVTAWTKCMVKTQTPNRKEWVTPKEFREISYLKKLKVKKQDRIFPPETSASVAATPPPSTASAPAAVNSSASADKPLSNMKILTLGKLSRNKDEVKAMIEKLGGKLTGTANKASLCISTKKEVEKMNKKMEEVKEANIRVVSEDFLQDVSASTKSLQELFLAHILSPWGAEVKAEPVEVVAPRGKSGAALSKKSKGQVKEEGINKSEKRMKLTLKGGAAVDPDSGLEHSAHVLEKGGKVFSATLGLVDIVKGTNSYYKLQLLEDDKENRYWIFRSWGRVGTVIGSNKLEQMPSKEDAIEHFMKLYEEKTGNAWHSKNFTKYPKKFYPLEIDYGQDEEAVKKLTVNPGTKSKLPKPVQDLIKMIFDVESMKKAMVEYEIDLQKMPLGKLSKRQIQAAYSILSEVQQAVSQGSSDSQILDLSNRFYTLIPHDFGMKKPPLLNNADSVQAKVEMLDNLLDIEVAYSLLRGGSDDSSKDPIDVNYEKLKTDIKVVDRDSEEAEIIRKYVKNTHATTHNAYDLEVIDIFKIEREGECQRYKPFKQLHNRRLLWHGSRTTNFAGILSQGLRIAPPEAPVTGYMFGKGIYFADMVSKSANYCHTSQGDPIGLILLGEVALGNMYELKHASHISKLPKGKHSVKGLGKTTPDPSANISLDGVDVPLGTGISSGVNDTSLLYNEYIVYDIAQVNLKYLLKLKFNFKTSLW

Sequence of TRF1 (unmodified, His-tagged full length) (P54274 whole entry): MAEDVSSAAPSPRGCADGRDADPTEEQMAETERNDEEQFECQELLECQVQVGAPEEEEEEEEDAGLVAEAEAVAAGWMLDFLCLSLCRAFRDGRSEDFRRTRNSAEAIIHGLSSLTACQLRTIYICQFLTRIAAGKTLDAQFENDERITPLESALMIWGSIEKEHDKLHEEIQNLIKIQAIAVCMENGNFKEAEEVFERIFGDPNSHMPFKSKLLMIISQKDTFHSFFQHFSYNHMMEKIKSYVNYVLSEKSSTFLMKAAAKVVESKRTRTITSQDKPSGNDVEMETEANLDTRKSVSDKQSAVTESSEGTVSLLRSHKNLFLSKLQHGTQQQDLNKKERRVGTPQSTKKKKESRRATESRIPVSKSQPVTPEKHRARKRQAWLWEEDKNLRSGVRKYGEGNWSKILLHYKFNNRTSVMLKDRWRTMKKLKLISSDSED

B1: telomeric duplex DNA (dsDNA)
DNA 1: GGGTTAGGGTTAGGGTTAGGGTTAGGGTTAGGGTTAGGGTTAGGGCCCCTC
DNA 2: GAGGGGCCCTAACCCTAACCCTAACCCTAACCCTAACCCTAACCCTAACCC
B1: binds [1]; no binding [2].

— PMC9981704, “PARP1 allows proper telomere replication through TRF1 poly (ADP-ribosyl)ation and helicase recruitment”
